Source: publication PMC2953525, “Subtle Alterations in PCNA-Partner Interactions Severely Impair DNA Replication and Repair” (PLoS Biology, 2010)

How the values were obtained:
[1] = target: Msh6 PIP peptide; assay: SPR analysis of PCNA binding to PIP peptide; set-up: species or system yeast; conditions: peptide 5-5,000 nM
Excerpt: (§1) To quantify differences in binding affinities of the PCNA mutants relative to the WT, we characterized four PCNA mutants with increased affinity for PIP peptides derived from Rad30, Pol32, Msh6, and Ung1 partners using SPR. These mutants were overexpressed in E. coli, purified by affinity chromatography, and immobilized on an SPR sensor chip for binding characterization. SPR binding analysis enabled direct and sensitive measurement of interaction affinities relative to the Y2H system and indicated an up to 8-fold increase in binding affinity for the different PIP peptides, relative to WT PCNA (Table 1). Such analysis allowed the detection of a significant decrease in the Rad30 PIP peptide dissociation rate in the Pol30-Rad30E9p mutant relative to the WT, indicating a ∼9-fold increase in the lifetime of the PCNA-Rad30 complex (see Table 1). Collectively the ELISA, Y2H, and SPR assays validated and quantified the increase in mutant PCNA binding affinities, relative to WT PCNA.
(§2) Protein interaction assays were carried out using the ProteOn XPR36 (Bio-Rad) instrument. WT or PCNA mutants (0.4 to 5.2 fmol) were immobilized on the surface of a GLM sensor chip by a carbodiimide-activated succinimide-coupling method, as specified by the manufacturer. All SPR experiments were performed by flowing 150 µl of the target peptide at a flow rate of 30 µl/min onto the PCNA-bound chip. Different concentrations (5–5,000 nM) of PIP peptides (Table 1) were injected over the PCNA chip, and binding parameters were determined using ProteOn XPR36 software (Bio-Rad). The ligand (PCNA) and analyte (peptide) buffers were PBST and 150 mM NaCl, 1 mM EDTA, 0.01% Tween-80, 30 mM Hepes, pH 7.5, respectively.

[2] = target: Rad30 PIP peptide; assay: SPR analysis of PCNA binding to PIP peptide; set-up: species or system yeast
Excerpt: as §1, §2

[3] = target: Pol32 PIP peptide; assay: SPR analysis of PCNA binding to PIP peptide; set-up: species or system yeast; conditions: peptide 5-5,000 nM
Excerpt: as §1, §2

[4] = target: T1, pol30-Rad27E6 (yeast, UniProt P15873 1-258, IDCL DIDADFLKIEEL to DGDYDILKIREL); assay: two-hybrid; quantitative Y2H: generation time of the YRG2 strains in liquid SC-Leu-Trp-His, given relative to cells expressing WT PCNA; average of at least 3 experiments; conditions: partners not purified
T1 construct: PCNA (POL30), yeast; source: yeast two-hybrid fusion (pAD-GAL4, strain YRG2)
T1 sequence: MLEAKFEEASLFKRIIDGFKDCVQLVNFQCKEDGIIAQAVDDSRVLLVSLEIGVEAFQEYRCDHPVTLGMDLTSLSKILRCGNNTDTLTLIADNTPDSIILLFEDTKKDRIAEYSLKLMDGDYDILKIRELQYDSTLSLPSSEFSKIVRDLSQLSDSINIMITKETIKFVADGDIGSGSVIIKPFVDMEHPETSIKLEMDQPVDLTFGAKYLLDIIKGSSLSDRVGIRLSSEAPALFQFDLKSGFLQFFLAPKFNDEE

[5] = target: T2, pol30-Rad27L1 (yeast, UniProt P15873 1-258, IDCL DIDADFLKIEEL to D––VDILKIGEL); assay: as above; conditions: partners not purified
T2 construct: PCNA (POL30), yeast; two residues after the first aspartic acid of the IDCL are deleted; source: yeast two-hybrid fusion (pAD-GAL4, strain YRG2)
T2 sequence: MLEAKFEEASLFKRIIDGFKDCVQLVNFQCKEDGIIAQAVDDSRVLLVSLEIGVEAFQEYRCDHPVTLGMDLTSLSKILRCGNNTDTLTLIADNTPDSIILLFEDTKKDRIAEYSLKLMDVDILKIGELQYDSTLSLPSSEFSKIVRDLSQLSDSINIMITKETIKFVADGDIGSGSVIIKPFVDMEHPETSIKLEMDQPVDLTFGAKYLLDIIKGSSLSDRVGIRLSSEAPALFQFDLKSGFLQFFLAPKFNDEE

[6] = target: T3, pol30-Rad30E2 (yeast, UniProt P15873 1-258, IDCL DIDADFLKIEEL to DDDWDFLKILEL); assay: as above; conditions: partners not purified
T3 construct: PCNA (POL30), yeast; source: yeast two-hybrid fusion (pAD-GAL4, strain YRG2)
T3 sequence: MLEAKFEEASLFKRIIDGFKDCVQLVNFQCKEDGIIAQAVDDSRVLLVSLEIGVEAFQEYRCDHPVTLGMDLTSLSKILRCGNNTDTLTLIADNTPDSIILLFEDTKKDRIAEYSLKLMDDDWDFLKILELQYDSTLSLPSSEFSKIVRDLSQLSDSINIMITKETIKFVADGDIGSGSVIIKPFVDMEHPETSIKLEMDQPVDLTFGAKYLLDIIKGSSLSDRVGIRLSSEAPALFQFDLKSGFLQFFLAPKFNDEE

[7] = target: T4, pol30-Rad27E31 (yeast, UniProt P15873 1-258, IDCL DIDADFLKIEEL to DGDYDVLKIREL); assay: as above; conditions: partners not purified
T4 construct: PCNA (POL30), yeast; source: yeast two-hybrid fusion (pAD-GAL4, strain YRG2)
T4 sequence: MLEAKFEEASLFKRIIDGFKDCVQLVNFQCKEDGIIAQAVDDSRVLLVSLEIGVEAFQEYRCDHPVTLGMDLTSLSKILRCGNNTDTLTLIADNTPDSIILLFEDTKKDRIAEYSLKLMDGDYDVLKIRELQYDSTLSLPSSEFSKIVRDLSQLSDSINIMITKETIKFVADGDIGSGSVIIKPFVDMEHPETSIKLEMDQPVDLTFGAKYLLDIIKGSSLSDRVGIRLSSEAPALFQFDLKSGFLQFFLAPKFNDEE

[8] = footnote d, PCNA immobilized on GLM chip

POL30: wild-type yeast PCNA (POL30), IDCL sequence DIDADFLKIEEL
Kd ([1]; PCNA immobilized, ProteOn XPR36, read-out: Binding affinity for Msh6 PIP peptide (SPR)): 3 µM
Kd ([2]; PCNA immobilized, peptide 5-5,000 nM, ProteOn XPR36, read-out: Binding affinity for Rad30 PIP peptide (SPR)): 0.17 µM
off-rate (kd) of the Rad30 PIP peptide ([2]; SPR): 0.03 s⁻¹
Kd ([3]; PCNA immobilized, ProteOn XPR36, read-out: Binding affinity for Pol32 PIP peptide (SPR)): 0.36 µM

B1: Rad27 (natural protein, yeast, UniProt P26793 1-382, looked up)
chain: MGIKGLNAIISEHVPSAIRKSDIKSFFGRKVAIDASMSLYQFLIAVRQQDGGQLTNEAGETTSHLMGMFYRTLRMIDNGIKPCYVFDGKPPDLKSHELTKRSSRRVETEKKLAEATTELEKMKQERRLVKVSKEHNEEAQKLLGLMGIPYIIAPTEAEAQCAELAKKGKVYAAASEDMDTLCYRTPFLLRHLTFSEAKKEPIHEIDTELVLRGLDLTIEQFVDLCIMLGCDYCESIRGVGPVTALKLIKTHGSIEKIVEFIESGESNNTKWKIPEDWPYKQARMLFLDPEVIDGNEINLKWSPPKEKELIEYLCDDKKFSEERVKSGISRLKKGLKSGIQGRLDGFFQVVPKTKEQLAAAAKRAQENKKLNKNKNKVTKGRR
notes: Rad27 (endonuclease), yeast; also called pBD-Rad27; source: yeast two-hybrid fusion (pBD-GAL4, strain YRG2)
fold change in affinity relative to WT PCNA (Y2H generation time) [4]: 1.5 fold
fold change in affinity relative to WT PCNA (Y2H generation time) [5]: 1.7 fold
fold change in affinity relative to WT PCNA (Y2H generation time) [6]: 0.4 fold
fold change in affinity relative to WT PCNA (Y2H generation time) [7]: 1.5 fold

B2: pol30-Msh6E6: PCNA mutant evolved for Msh6, IDCL sequence DYDKDLLKIIEL (protein)
chain: MLEAKFEEASLFKRIIDGFKDCVQLVNFQCKEDGIIAQAVDDSRVLLVSLEIGVEAFQEYRCDHPVTLGMDLTSLSKILRCGNNTDTLTLIADNTPDSIILLFEDTKKDRIAEYSLKLMDYDKDLLKIIELQYDSTLSLPSSEFSKIVRDLSQLSDSINIMITKETIKFVADGDIGSGSVIIKPFVDMEHPETSIKLEMDQPVDLTFGAKYLLDIIKGSSLSDRVGIRLSSEAPALFQFDLKSGFLQFFLAPKFNDEE
modifications: left off: Gal4 activation domain, end not stated, kept
Fold increase in binding affinity for Msh6 PIP peptide relative to WT PCNA (SPR) [1, 8]: 1.6 fold

B3: pol30-Pol32E9 (protein)
chain: MLEAKFEEASLFKRIIDGFKDCVQLVNFQCKEDGIIAQAVDDSRVLLVSLEIGVEAFQEYRCDHPVTLGMDLTSLSKILRCGNNTDTLTLIADNTPDSIILLFEDTKKDRIAEYSLKLMDNDVDSLKIIELQYDSTLSLPSSEFSKIVRDLSQLSDSINIMITKETIKFVADGDIGSGSVIIKPFVDMEHPETSIKLEMDQPVDLTFGAKYLLDIIKGSSLSDRVGIRLSSEAPALFQFDLKSGFLQFFLAPKFNDEE
modifications: left off: Gal4 activation domain, end not stated, kept
Fold increase in binding affinity for Pol32 PIP peptide relative to WT PCNA (SPR) [3, 8]: 2 fold

B4: pol30-Rad30E9: PCNA mutant evolved for Rad30, IDCL sequence DNDWDFLKIDEL (protein)
chain: MLEAKFEEASLFKRIIDGFKDCVQLVNFQCKEDGIIAQAVDDSRVLLVSLEIGVEAFQEYRCDHPVTLGMDLTSLSKILRCGNNTDTLTLIADNTPDSIILLFEDTKKDRIAEYSLKLMDNDWDFLKIDELQYDSTLSLPSSEFSKIVRDLSQLSDSINIMITKETIKFVADGDIGSGSVIIKPFVDMEHPETSIKLEMDQPVDLTFGAKYLLDIIKGSSLSDRVGIRLSSEAPALFQFDLKSGFLQFFLAPKFNDEE
modifications: left off: Gal4 activation domain, end not stated, kept
off-rate (kd) of the Rad30 PIP peptide ([2]; SPR): 0.00321 s⁻¹
fold increase in the lifetime of the PCNA-Rad30 complex ([2]; SPR, from Rad30 PIP peptide dissociation rate, relative to the WT): ~9 fold
Fold increase in binding affinity for Rad30 PIP peptide relative to WT PCNA (SPR) ([2]; footnote d, PCNA immobilized on GLM chip, peptide 5-5,000 nM): 8.5 fold
